# Measurements reported in patent publication US20050182242A1, “Global analysis of protein activities using proteome chips” (priority 2001, published 2005).
# What was measured:
# [1] = test system: phosphatidylcholine (PC) liposomes; experiment: Yeast proteome chip probed with PC liposomes; settings: liposome binding signal on yeast proteome chip, Cy3-streptavidin detection
# Procedure, shortened: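 Binding of arrayed yeast proteins to sonicated PC liposomes, with or without 5% (w/w) phosphoinositide, is scored by streptavidin fluorescence on the biotinylated lipid tracer.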
# PI(3,4,5)P3 liposomes = experiment: Yeast proteome chip probed with PI(3,4,5)P3 liposomes; settings: liposome binding signal on yeast proteome chip, Cy3-streptavidin detection
# PI(3,4)P2 liposomes = experiment: Yeast proteome chip probed with PI(3,4)P2 liposomes; settings: liposome binding signal on yeast proteome chip, Cy3-streptavidin detection
# PI(3)P liposomes = experiment: Yeast proteome chip probed with PI(3)P liposomes; settings: liposome binding signal on yeast proteome chip, Cy3-streptavidin detection
# PI(4,5)P2 liposomes = experiment: Yeast proteome chip probed with PI(4,5)P2 liposomes; settings: liposome binding signal on yeast proteome chip, Cy3-streptavidin detection
# PI(4)P liposomes = experiment: Yeast proteome chip probed with PI(4)P liposomes; settings: liposome binding signal on yeast proteome chip, Cy3-streptavidin detection
# total yeast genomic DNA = experiment: Yeast proteome chip probed with labeled genomic DNA; format: binding; settings: Cy3-labeled genomic DNA, visual inspection
# Excerpt: Protein-DNA and protein-RNA interactions are important for many fundamental biological functions such as transcription regulation, chromosome segregation and maintenance, and RNA transport and processing (Williamson, 2000, Nat. Struct. Biol. 7(10):834-7). To explore the possibility of using a proteome chip to identify proteins that bind to DNA or RNA molecules, total yeast genomic DNA was labeled using Cy3-CTP and Klenow fragment, and polyA^+ was labeled using a biotinylated psoralen-derivative (31). Each probe was incubated with a different proteome chip (FIG. 3A).
# The protein-nucleic acid interaction was assayed as follows. The nucleic acid robes were labeled as described by Winzeler et al. (1999, Science 285:901). Blocked proteome chips were washed three to five times in PBS buffer, and the extra liquid on the glass surface was removed by tapping the slides vertically on a KIMWIPE™. 200 μl of labeled nuclei acid probe ([…] poly(dC/dG); 100-300 mM NaCl; 50-300 mM HEPES, pH 7.0-8.5; 10 mM MgCl2) was added to the proteome chip and immediately covered by a hydrophobic plastic cover slip (GRACE BIO-LABS™, USA). After trapped air bubbles were removed, the chip was incubated in a humidity chamber in the dark at room temperature (“RT”) for one hour. To remove the cover slip, the chip was immersed into large volume of PBS buffer(>50 ml), so that the slip would float away. The chip was then moved to a second PBS bath (>50 ml) and washed 3×5 min with shaking in the dark at RT. To completely remove the liquid on the chip, the chip was spun to dryness at 1500-2000 rpm for 5-10 min at RT.
molecule,measurement,setting,value
"THI13: yeast protein involved in nucleotide metabolism, GST-HisX6 fusion (protein, UniProt Q07748 1-340, looked up, GST-His6 tag, yeast protein involved in nucleotide metabolism, GST-HisX6 fusion) 4-amino-5-hydroxymethyl-2-meth …: MSTDKITFLLNWQPTPYHIPIFLAQTKGYFKEQGLDIAILEPTNPSDVTELIGSGKVDMGLKAMIHTLAAKARGFPVTSVASLLDEPFTGVLYLKGSGITEDFQSLKGKKIGYVGEFGKIQIDELTKHYGMKPEDYTAVRCGMNVAKYIIEGKIDAGIGIECMQQVELEEYLAKQGRPASDAKMLRIDKLACLGCCCFCTVLYICNDEFLKKNPEKVRKFLKAIKKATDYVLADPVKAWKEYIDFKPQLNNDLSYKQYQRCYAYFSSSLYNVHRDWKKVTGYGKRLAILPPDYVSNYTNEYLSWPEPEEVSDPLEAQRLMAIHQEKCRQEGTFKRLALPA",PC,[1],43.14
same,"PI(3, 4, 5)P3","PI(3,4,5)P3 liposomes",39.04
same,"PI(3, 4)P2","PI(3,4)P2 liposomes",75.66
same,PI(3)P,PI(3)P liposomes,13.75
same,"PI(4, 5)P2","PI(4,5)P2 liposomes",64.67
same,PI(4)P,PI(4)P liposomes,55.09
same,binding of genomic DNA probe,total yeast genomic DNA,bind the DNA probe
